Source: patent publication US20240239885A1, “ANTIBODY CONJUGATE COMPRISING ANTI-P-CADHERIN ANTIBODY AND USES THEREOF” (WUXI BIOLOGICS IRELAND LIMITED, priority 2021, published 2024)
Starred links: 1 amine or outer side, 2 acyl side, 3 side chain; linkers in the order of their positions; H or OH if unused. Non-standard residues stand in square brackets, D forms with d. Residues, ends and D or L forms follow the SMILES beside them. *: point of attachment. Dolaproine = CO[C@@H]([C@@H]1CCCN1)[C@@H](C)C(=O)O; Hexanoyl(6-maleimido) = O=C1C=CC(=O)N1CCCCCC(=O)*; Dil = CC[C@H](C)[C@H](NC)[C@@H](CC(=O)O)OC; PABC = O=C(OCc1ccc(N[*:1])cc1)[*:2]; X1 = C[C@@H](N*)[C@@H](O)c1ccccc1; Cit = NC(=O)NCCC[C@H](N)C(=O)O; NMeV = CN[C@H](C(=O)O)C(C)C

Key:
[1] = test system: A549 cells; test: Cytotoxicity assay of ADC (Cell Titer Glo) on A549; format: cell-based, human; conditions: for IC50: A549 (P-cadherin low expressing), 5 days, read-out: IC50 (nM), ADC toxicity; for Max Inh %: A549, 5 days
[2] = test system: MDA-MB-453 cells; test: Cytotoxicity assay of ADC (Cell Titer Glo) on MDA-MB-453; format: cell-based, human; conditions: for IC50: MDA-MB-453 (P-cadherin low expressing), 5 days, read-out: IC50 (nM), ADC toxicity; for Max Inh %: MDA-MB-453, 5 days
[3] = test system: NCI-H1650 cells; test: Cytotoxicity assay of ADC (Cell Titer Glo) on NCI-H1650; format: cell-based, human; conditions: NCI-H1650, 5 days
[4] = test system: HT-29 cells; test: Cytotoxicity assay of ADC (Cell Titer Glo) on HT-29; conditions: for Max Inh %: HT-29, 5 days; for IC50: read-out: IC50 (nM), ADC cytotoxicity, HT-29 (P-cadherin low expressing), 5 days
[5] = test system: HCC-70 cells; test: Cytotoxicity assay of ADC (Cell Titer Glo) on HCC-70; conditions: HCC-70, 5 days; for IC50: read-out: IC50 (nM), ADC cytotoxicity
[6] = test system: HCC-1954 cells; test: Cytotoxicity assay of ADC (Cell Titer Glo) on HCC-1954; conditions: HCC-1954, 5 days; for IC50: read-out: IC50 (nM), ADC cytotoxicity
[7] = biological target: T1, human P-cadherin expressed on cells (human, UniProt P22223 108-829); test: FACS on HCT-116 cells
Description: Binding of the ADCs to P-cadherin expressed on HCT-116 cells was determined by flow cytometry analysis using the same procedure as described above. […] 1×10⁵ cells/well (100 μL) were added to each well of a 96-well U-plate (Corning, #3799) and centrifuged at 1500 rpm (Eppendorf, #5810R) for 5 minutes before removing the supernatant. Antibodies serially diluted in 1% BSA/1×PBS (Ca+/Mg+) were added at 100 μL/well to the pelleted cells and incubated at 4° C. for 1 hour. […] Cells were washed two times with 180 μL/well of 1% BSA/1×PBS (Ca+/Mg+) by centrifugation at 1500 rpm for 5 minutes at 4° C. Pelleted cells were resuspended in 100 μL/well Alexa647 conjugated Goat anti-human IgG Fc (Jackson, #109-605-098) 1:500 diluted in 1% BSA/1×PBS (Ca+/Mg+) for 30 minutes at 4° C. in the dark. Cells were then washed two times as described above. After the final wash, cells were resuspended in 100 μL 1% BSA/1×PBS (Ca+/Mg+) and fluorescence values were measured with a FACS Canto II cytometer (BD Biosciences). The amount of cell surface bound anti-P-Cadherin antibody was assessed by measuring the mean fluorescence (MFI).

[8] = biological target: T1, human P-cadherin expressed on cells; test: FACS on NCI-H1650 cells
[9] = biological target: T2, P-Cadherin ECD domain 1 (aa 108-236) (human, UniProt P22223 108-236); test: direct ELISA, coated antigen
T2 construct: range 108-236; also called huCDH3 ECD Domain1
Description: (§1) The binding domains of the antibody drug conjugates to human P-Cadherin extra cellular domain (ECD) were determined by a direct protein binding ELISA. 96-well high protein binding ELISA plates (Nunc) were coated overnight at 4° ° C. with antigens in coating buffer. All wells were washed three time with PBS/0.5%. Tween-20 (v/v) and all the following wash steps in the assay were performed the same. The wells were then blocked for one hour with 2% BSA (Bovogen)/1×PBS (Ca+/Mg+) (Gibco) and washed three times. For the primary antibody binding, the testing antibodies including the BMKs and our antibodies serially diluted in 2% BSA/1×PBS (Ca+/Mg+) were added to the relevant wells and incubated at ambient temperature for two hours. Plates were washed three times prior to the addition of 100 μL of secondary antibody Goat anti-Human-IgG-F(ab′)2-HRP (Jackson) diluted in 2% BSA/1×PBS (Ca+/Mg+). Plates were incubated at room temperature for one hour, followed by six washes as describe above.
(§2) For the binding detection, 100 μL Tetramethylbenzidine (TMB) Substrate solution (Invitrogen) was added to all wells before stopping the reaction with 100 μL 2M HCl. The extent of the testing Abs binding to P-Cadherin ECD (i.e. huCDH3 ECD, Uniprot ID: P22223 aa108-654), P-Cadherin ECD domain 1 (aa 108-236), P-Cadherin ECD domain 1+2 (aa 108-348), P-Cadherin ECD domain 1+2+3 (aa 108-461), P-Cadherin ECD domain 1+2+3+4 (aa 108-550) proteins were determined by measuring the OD450-OD540 absorbance using the SpectraMax® M5e microplate reader. EC50 values were obtained by the four-parameter non-linear regression analysis using GraphPad Prism software.

[10] = biological target: T3, P-Cadherin ECD domain 1+2 (aa 108-348) (human, UniProt P22223 108-348); test: direct ELISA, coated antigen
T3 construct: range 108-348; also called huCDH3 ECD Domain1 + 2
Description: as §1, §2

[11] = biological target: T4, P-Cadherin ECD domain 1+2+3 (aa 108-461) (human, UniProt P22223 108-461); test: direct ELISA, coated antigen
T4 construct: range 108-461; also called huCDH3 ECD Domain1 + 2 + 3
Description: as §1, §2

[12] = biological target: T1, human P-cadherin expressed on cells; test: cell-based or functional assay
[13] = biological target: T1, human P-cadherin expressed on cells; test: cell-based or functional assay; remark: listed apart in the source
[14] = biological target: T1, human P-cadherin expressed on cells; test: cell-based or functional assay; remark: listed apart in the source
[15] = biological target: T1, human P-cadherin expressed on cells; test: cell-based or functional assay; remark: listed apart in the source
[16] = biological target: T1, human P-cadherin expressed on cells; test: cell-based or functional assay; remark: listed apart in the source
[17] = biological target: T5, P-Cadherin ECD domain 1+2+3+4 (aa 108-550) (human, UniProt P22223 108-550); test: direct ELISA, coated antigen
T5 construct: range 108-550; also called huCDH3 ECD Domain1 + 2 + 3 + 4
Description: as §1, §2

[18] = biological target: T6, P-Cadherin ECD (huCDH3 ECD, Uniprot ID: P22223 aa108-654) (human, UniProt P22223 108-654); test: direct ELISA, coated antigen
T6 construct: range 108-654; also called extracellular domain of human P-cadherin
Description: as §1, §2

[19] = biological target: T1, human P-cadherin expressed on cells; test: FACS on HCT-116 cells after 1 day in human serum at 37 C
Description: (§3) The antibody stability in human serum was tested by FACS. Briefly, human serum was freshly isolated by centrifuging the fresh blood twice at 4000 rpm for 10 minutes. […] As a control, antibodies serum mix was frozen immediately without 37° C. incubation. For the FACS analysis, the samples from different time points were free-thawed simultaneously at 4° C. […] The cells were washed twice with 1% BSA/1×PBS (Ca+/Mg+). Alexa647 conjugated Goat anti-human IgG Fc (Jackson, #109-605-098) 1:500 diluted in 1% BSA/1×PBS (Ca+/Mg+) were added to the cells and incubated at 4° C. for 30 minutes. Cells were washed twice in the same buffer and the mean fluorescence (MFI) of stained cells was measured using a FACS Canto II cytometer (BD Biosciences) and analyzed by FlowJo. Wells containing no antibody or secondary antibody only were used to establish background fluorescence. Four-parameter non-linear regression analysis was used to obtain EC50 values for cell binding using GraphPad Prism6 software.

[20] = biological target: T1, human P-cadherin expressed on cells; test: FACS on HCT-116 cells after 4 days in human serum at 37 C
Description: as §3

[21] = biological target: T1, human P-cadherin expressed on cells; test: FACS on HCT-116 cells after 7 days in human serum at 37 C
Description: as §3

[22] = biological target: T1, human P-cadherin expressed on cells; test: FACS affinity test on NCI-H1650 cells, quantitative beads
[23] = biological target: T1, human P-cadherin expressed on cells; test: FACS on HCT-116 cells after 14 days in human serum at 37 C
Description: as §3

[24] = biological target: T2, P-Cadherin ECD domain 1 (aa 108-236); test: direct ELISA on coated huCDH3 ECD Domain1, goat anti-human IgG F(ab')2-HRP detection
Description: as §1, with “Plates were washed three times prior to the addition of 100 μL of secondary antibody Goat anti-Human-IgG-F(ab′)2-HRP (Jackson) diluted in 2% BSA/1×PBS (Ca+/Mg+). Plates were incubated at room temperature for one hour, followed by six washes as describe above.” left out
as §2, with “EC50 values were obtained by the four-parameter non-linear regression analysis using GraphPad Prism software.” left out

[25] = biological target: T3, P-Cadherin ECD domain 1+2 (aa 108-348); test: direct ELISA on coated huCDH3 ECD Domain1+2, goat anti-human IgG F(ab')2-HRP detection
Description: as §1, with “Plates were washed three times prior to the addition of 100 μL of secondary antibody Goat anti-Human-IgG-F(ab′)2-HRP (Jackson) diluted in 2% BSA/1×PBS (Ca+/Mg+). Plates were incubated at room temperature for one hour, followed by six washes as describe above.” left out
as §2, with “EC50 values were obtained by the four-parameter non-linear regression analysis using GraphPad Prism software.” left out

T2 sequence (P22223 108-236 limits assumed): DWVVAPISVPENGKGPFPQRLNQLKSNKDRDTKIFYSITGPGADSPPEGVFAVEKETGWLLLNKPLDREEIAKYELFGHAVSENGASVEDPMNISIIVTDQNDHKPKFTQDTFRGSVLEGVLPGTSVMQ
T3 sequence (P22223 108-348 limits assumed): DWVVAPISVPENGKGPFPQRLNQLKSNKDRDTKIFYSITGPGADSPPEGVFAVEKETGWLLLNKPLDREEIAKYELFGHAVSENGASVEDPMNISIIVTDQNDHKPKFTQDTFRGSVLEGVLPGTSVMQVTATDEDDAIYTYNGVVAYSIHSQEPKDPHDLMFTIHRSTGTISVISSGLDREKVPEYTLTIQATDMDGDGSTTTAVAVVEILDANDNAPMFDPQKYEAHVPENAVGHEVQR
T1 sequence (P22223 108-829): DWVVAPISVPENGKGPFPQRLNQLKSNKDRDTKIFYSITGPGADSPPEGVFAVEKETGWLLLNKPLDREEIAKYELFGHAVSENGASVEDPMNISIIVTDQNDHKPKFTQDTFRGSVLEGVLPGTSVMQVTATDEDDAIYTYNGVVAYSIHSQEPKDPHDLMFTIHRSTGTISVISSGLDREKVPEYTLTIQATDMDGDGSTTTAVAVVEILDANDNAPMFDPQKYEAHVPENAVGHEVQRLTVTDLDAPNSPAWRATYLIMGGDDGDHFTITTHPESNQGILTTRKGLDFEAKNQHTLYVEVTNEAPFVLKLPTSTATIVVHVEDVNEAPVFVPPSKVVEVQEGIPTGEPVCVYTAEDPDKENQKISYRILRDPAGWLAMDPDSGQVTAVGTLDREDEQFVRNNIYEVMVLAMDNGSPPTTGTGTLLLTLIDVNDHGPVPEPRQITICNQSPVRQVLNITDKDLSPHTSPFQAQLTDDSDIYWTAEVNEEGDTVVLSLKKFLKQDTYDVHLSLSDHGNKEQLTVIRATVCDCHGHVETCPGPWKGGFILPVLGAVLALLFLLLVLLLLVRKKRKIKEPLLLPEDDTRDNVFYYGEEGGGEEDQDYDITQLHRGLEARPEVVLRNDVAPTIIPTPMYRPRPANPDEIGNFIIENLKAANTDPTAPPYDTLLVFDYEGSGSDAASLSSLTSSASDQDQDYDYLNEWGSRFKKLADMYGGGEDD
T4 sequence (P22223 108-461 limits assumed): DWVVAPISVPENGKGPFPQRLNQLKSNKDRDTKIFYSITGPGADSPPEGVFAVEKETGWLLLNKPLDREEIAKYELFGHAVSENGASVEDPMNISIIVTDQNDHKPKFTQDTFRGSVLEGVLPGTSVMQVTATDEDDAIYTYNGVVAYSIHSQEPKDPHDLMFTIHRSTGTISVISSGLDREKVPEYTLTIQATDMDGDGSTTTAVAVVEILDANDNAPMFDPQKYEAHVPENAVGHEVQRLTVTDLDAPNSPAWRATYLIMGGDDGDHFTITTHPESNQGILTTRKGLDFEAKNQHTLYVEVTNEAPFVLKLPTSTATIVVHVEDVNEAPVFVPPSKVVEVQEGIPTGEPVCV
T5 sequence (P22223 108-550 limits assumed): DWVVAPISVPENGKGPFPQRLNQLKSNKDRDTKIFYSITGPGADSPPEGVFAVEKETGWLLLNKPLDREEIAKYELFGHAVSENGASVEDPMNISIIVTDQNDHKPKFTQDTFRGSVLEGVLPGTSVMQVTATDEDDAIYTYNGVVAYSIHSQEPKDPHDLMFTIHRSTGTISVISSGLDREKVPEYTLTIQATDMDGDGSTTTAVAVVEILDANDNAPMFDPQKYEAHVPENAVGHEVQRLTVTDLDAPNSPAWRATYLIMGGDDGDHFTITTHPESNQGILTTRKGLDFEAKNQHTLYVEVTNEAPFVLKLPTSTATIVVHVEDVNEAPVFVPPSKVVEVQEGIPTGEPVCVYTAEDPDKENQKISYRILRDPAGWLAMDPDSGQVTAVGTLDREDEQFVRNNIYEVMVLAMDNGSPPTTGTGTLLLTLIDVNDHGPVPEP
T6 sequence (P22223 other isoform, or with tags, fused parts or gaps limits assumed): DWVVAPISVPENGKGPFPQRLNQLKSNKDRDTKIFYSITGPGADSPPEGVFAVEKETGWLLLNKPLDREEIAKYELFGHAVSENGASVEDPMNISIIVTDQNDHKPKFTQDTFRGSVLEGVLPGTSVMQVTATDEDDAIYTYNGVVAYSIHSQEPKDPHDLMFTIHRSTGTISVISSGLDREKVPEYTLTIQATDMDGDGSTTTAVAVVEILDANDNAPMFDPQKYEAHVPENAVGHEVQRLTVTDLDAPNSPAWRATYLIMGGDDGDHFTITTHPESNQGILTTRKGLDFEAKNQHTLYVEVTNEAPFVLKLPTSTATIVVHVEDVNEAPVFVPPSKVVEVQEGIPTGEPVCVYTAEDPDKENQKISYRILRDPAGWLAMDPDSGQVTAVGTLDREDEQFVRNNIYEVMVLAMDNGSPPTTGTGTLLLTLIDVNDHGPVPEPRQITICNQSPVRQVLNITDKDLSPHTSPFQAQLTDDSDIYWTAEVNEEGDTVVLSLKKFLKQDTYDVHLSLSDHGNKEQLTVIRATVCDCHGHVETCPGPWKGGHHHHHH

| Molecule | IC50 [1] [nM] | Max Inh % [1] [%] | IC50 [2] [nM] | Max Inh % [2] [%] | Max Inh % [3] [%] | Max Inh % [4] [%] | IC50 [4] [nM] | Max Inh % [5] [%] | IC50 [5] [nM] | Max Inh % [6] [%] | IC50 [6] [nM] | Max OD [9] [OD450-OD540] | Max OD [10] [OD450-OD540] | Max OD [11] [OD450-OD540] | other results |
| --- | --- | --- | --- | --- | --- | --- | --- | --- | --- | --- | --- | --- | --- | --- | --- |
| CC[C@H](C)[C@@H]([C@@H](CC(=O)N1CCC[C@H]1[C@H](OC)[C@@H](C)C(=O)N[C@H](C)[C@@H](O)c1ccccc1)OC)N(C)C(=O)[C@@H](NC(=O)[C@@H](NC)C(C)C)C(C)C [Free drug (MMAE), mono-methyl auristatin E] (H-[NMeV]V[Dil][Dolaproine]-X1) | 1.37 | 89.2 | 1.28 | 96.7 | 81 | 95.5 | 0.52 | 87.2 | 0.23 | 97.7 | 0.05 | – | – | – | – |
| Isotype control (non-related hIgG1 antibody) | – | – | – | – | – | – | – | – | – | – | – | 0.014 | 0.014 | 0.015 | Max MFI [7]: 402 MFI; Max MFI [8]: 331 MFI |
| CC[C@H](C)[C@@H]([C@@H](CC(=O)N1CCC[C@H]1[C@H](OC)[C@@H](C)C(=O)N[C@H](C)[C@@H](O)c1ccccc1)OC)N(C)C(=O)[C@@H](NC(=O)[C@H](C(C)C)N(C)C(=O)OCc1ccc(NC(=O)[C@H](CCCNC(N)=O)NC(=O)[C@@H](NC(=O)CCCCCN2C(=O)C=CC2=O)C(C)C)cc1)C(C)C [Free payload control (MC-VC-PAB-MMAE), MC-VC-PAB-MMAE] ({Hexanoyl(6-maleimido)}-V[Cit][PABC][NMeV]V[Dil][Dolaproine]-X1) | > 10 | −5.4 | > 10 | −0.6 | 1 | −0.1 | > 10 | 1.3 | > 10 | 20.1 | > 10 | – | – | – | IC50 [3]: > 10 nM |
| W3195-1.53.1-p1-uIgG1L-MMAE (antibody, V domains shown, MC-vc-PAB-MMAE conjugated to cysteine thiols after TCEP reduction (positions not stated); HIC-DAR 3.86 per antibody, also called W3195-p1-MMAE; WBP3195-p1-ADC) VH: QVQLQESGPGLVKPSETLSLTCTVSGGSVISDNYYWTWVRQPPGKGLEFIGYIYYRGSTNYNPSLKNRVIISIDTSRNQFSLDLNSVTAADTAVYYCARDRRTGNSLPFDNWGQGTLVTVSS VL: SYELTQPPSVSVSPGQTAQITCSGDKLGDKFASWYQQKSGQSPVVVIYQDNKRPSGFPERFSGSNSGNTATLTISGTQAMDEADYYCQAWDSSIVVFGGGTKLTVLG | – | – | – | – | – | – | – | – | – | – | – | 0.19 | 0.16 | 0.95 | EC50 [7]: 0.17 nM; ADC Cytotoxicity on HCC-1954, IC50 [12]: 0.011 nM; ADC Cytotoxicity on HCC-70, IC50 [13]: 0.065 nM; ADC Cytotoxicity on NCI-H1650, IC50 [14]: 0.027 nM; Internalization of HCC-1954 cells in HCS assay, EC50 [15]: 0.023 nM; Internalization of NCI-H1650 cells in HCS assay, EC50 [16]: 0.22 nM; EC50 [8]: 0.075 nM; EC50 [17]: 0.17 nM; Max OD [17]: 0.75 OD450-OD540; EC50 [18]: 0.23 nM; Max OD [18]: 0.65 OD450-OD540; EC50 [11]: 0.2 nM; EC50 [19]: 0.15 nM; EC50 [20]: 0.18 nM; EC50 [21]: 0.17 nM; Kd [22]: 0.168 nM; EC50 [23]: 0.18 nM; binding result [24]: no binding (tested: about 20 nM); binding result [25]: no binding (tested: about 20 nM) |
